B1: GLT8D2 (parent)
chain: QEAKLLHWNGRHKPWDFPSVHNDL

Variants of: B1
Assay: protein stability index of a GFP-peptide fusion (GPS, HEK-293T) (PSI 1-6); higher = more stable
Settings: c terminus: a fixed tail appended
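Also: lentivirally expressed fusions sorted by FACS into six bins by GFP to DsRed ratio, PSI derived from sequencing read proportions per bin multiplied by bin number.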

| Variant | protein stability index |
| --- | --- |
| QEAKLLHWNGRHWPWDFPSVHNDL | 2.29 |
| QEAKLLHWNGRHRPWDFPSVHNDL | 2.86 |
| QEAKLLHWNGRHQPWDFPSVHNDL | 2.7 |
| QEAKLLHWNGRHYPWDFPSVHNDL | 2.43 |
| QEAKLLHWNGRHTPWDFPSVHNDL | 2.84 |
| QEAKLLHWNGRHSPWDFPSVHNDL | 2.27 |
| QEAKLLHWNGRHVPWDFPSVHNDL | 2.1 |
| QEAKLLHWNGRHKTWDFPSVHNDL | 2.52 |
| QEAKLLHWNGRHKHWDFPSVHNDL | 2.63 |
| QEAKLLHWNGRHKAWDFPSVHNDL | 2.62 |
| QEAKLLHWNGRHKIWDFPSVHNDL | 2.03 |
| QEAKLLHWNGRHKVWDFPSVHNDL | 2.09 |
| QEAKLLHWNGRHKEWDFPSVHNDL | 3.16 |
| QEAKLLHWNGRHKWWDFPSVHNDL | 2.19 |
| QEAKLLHWNGRHKQWDFPSVHNDL | 2.27 |
| QEAKLLHWNGRHKGWDFPSVHNDL | 2.87 |
| QEAKLLHWNGRHKKWDFPSVHNDL | 2.69 |
| QEAKLLHWNGRHKCWDFPSVHNDL | 2.06 |
| QEAKLLHWNGRHKNWDFPSVHNDL | 2.66 |
| QEAKLLHWNGRHKFWDFPSVHNDL | 2.45 |
| QEAKLLHWNGRHKRWDFPSVHNDL | 2.56 |
| QEAKLLHWNGRHKLWDFPSVHNDL | 2.33 |
| QEAKLLHWNGRHKDWDFPSVHNDL | 3.29 |
| QEAKLLHWNGRHKSWDFPSVHNDL | 2.68 |

| Variant | protein stability index |
| --- | --- |
| QEAKLLHWNGRHKYWDFPSVHNDL | 2.09 |
| QEAKLLHWNGRHKMWDFPSVHNDL | 2.36 |
| QEAKLLHWNGRHKPWEFPSVHNDL | 2.69 |
| QEAKLLHWNGRHKPWMFPSVHNDL | 2.12 |
| QEAKLLHWNGRHKPWLFPSVHNDL | 2.32 |
| QEAKLLHWNGRHKPWNFPSVHNDL | 2.42 |
| QEAKLLHWNGRHKPWVFPSVHNDL | 2.12 |
| QEAKLLHWNGRHKPWQFPSVHNDL | 2.48 |
| QEAKLLHWNGRHKPWAFPSVHNDL | 1.96 |
| QEAKLLHWNGRHKPWCFPSVHNDL | 1.55 |
| QEAKLLHWNGRHKPWPFPSVHNDL | 2.46 |
| QEAKLLHWNGRHKPWSFPSVHNDL | 2.46 |
| QEAKLLHWNGRHKPWHFPSVHNDL | 2.09 |
| QEAKLLHWNGRHKPWIFPSVHNDL | 2.37 |
| QEAKLLHWNGRHKPWFFPSVHNDL | 1.58 |
| QEAKLLHWNGRHKPWYFPSVHNDL | 1.87 |
| QEAKLLHWNGRHKPWRFPSVHNDL | 2.33 |
| QEAKLLHWNGRHKPWTFPSVHNDL | 2.62 |
| QEAKLLHWNGRHKPWGFPSVHNDL | 2.39 |
| QEAKLLHWNGRHKPWWFPSVHNDL | 2.5 |
| QEAKLLHWNGRHKPWKFPSVHNDL | 2.26 |
| QEAKLLHWNGRHKPWDMPSVHNDL | 3.22 |
| QEAKLLHWNGRHKPWDQPSVHNDL | 3.3 |
| QEAKLLHWNGRHKPWDWPSVHNDL | 2.58 |

| Variant | protein stability index |
| --- | --- |
| QEAKLLHWNGRHKPWDGPSVHNDL | 3.15 |
| QEAKLLHWNGRHKPWDKPSVHNDL | 3.16 |
| QEAKLLHWNGRHKPWDLPSVHNDL | 3.05 |
| QEAKLLHWNGRHKPWDYPSVHNDL | 2.81 |
| QEAKLLHWNGRHKPWDDPSVHNDL | 3.36 |
| QEAKLLHWNGRHKPWDIPSVHNDL | 3.1 |
| QEAKLLHWNGRHKPWDVPSVHNDL | 3.18 |
| QEAKLLHWNGRHKPWDPPSVHNDL | 3.24 |
| QEAKLLHWNGRHKPWDRPSVHNDL | 3.04 |
| QEAKLLHWNGRHKPWDNPSVHNDL | 2.85 |
| QEAKLLHWNGRHKPWDAPSVHNDL | 3.45 |
| QEAKLLHWNGRHKPWDCPSVHNDL | 3.14 |
| QEAKLLHWNGRHKPWDHPSVHNDL | 3.24 |
| QEAKLLHWNGRHKPWDTPSVHNDL | 3.17 |
| QEAKLLHWNGRHKPWDSPSVHNDL | 3.96 |
| QEAKLLHWNGRHKPWDEPSVHNDL | 4.18 |
| QEAKLLHWNGRHKPRDFPSVHNDL | 3.55 |
| QEAKLLHWNGRHKPLDFPSVHNDL | 2.87 |
| QEAKLLHWNGRHKPEDFPSVHNDL | 4.14 |
| QEAKLLHWNGRHKPIDFPSVHNDL | 3.02 |
| QEAKLLHWNGRHKPNDFPSVHNDL | 3.43 |
| QEAKLLHWNGRHKPMDFPSVHNDL | 3.48 |
| QEAKLLHWNGRHKPGDFPSVHNDL | 3.76 |
| QEAKLLHWNGRHKPVDFPSVHNDL | 3.49 |

| Variant | protein stability index |
| --- | --- |
| QEAKLLHWNGRHKPCDFPSVHNDL | 3.22 |
| QEAKLLHWNGRHKPADFPSVHNDL | 3.7 |
| QEAKLLHWNGRHKPTDFPSVHNDL | 3.3 |
| QEAKLLHWNGRHKPSDFPSVHNDL | 3.52 |
| QEAKLLHWNGRHKPPDFPSVHNDL | 3.81 |
| QEAKLLHWNGRHKPQDFPSVHNDL | 4.37 |
| QEAKLLHWNGRHKPDDFPSVHNDL | 3.59 |
| QEAKLLHWNGRHKPKDFPSVHNDL | 3.27 |
| QEAKLLHWNGRHKPFDFPSVHNDL | 2.88 |
| QEAKLLHWNGRHKPYDFPSVHNDL | 2.62 |
| QEAKLLHWNGRHKPHDFPSVHNDL | 3.17 |
| QEAKLLHWNGRHKPWDFDSVHNDL | 3.06 |
| QEAKLLHWNGRHKPWDFASVHNDL | 2.23 |
| QEAKLLHWNGRHKPWDFKSVHNDL | 2.99 |
| QEAKLLHWNGRHKPWDFHSVHNDL | 2.58 |
| QEAKLLHWNGRHKPWDFISVHNDL | 2.23 |
| QEAKLLHWNGRHKPWDFCSVHNDL | 2.6 |
| QEAKLLHWNGRHKPWDFMSVHNDL | 2.26 |
| QEAKLLHWNGRHKPWDFESVHNDL | 2.98 |
| QEAKLLHWNGRHKPWDFGSVHNDL | 2.32 |
| QEAKLLHWNGRHKPWDFLSVHNDL | 2.25 |
| QEAKLLHWNGRHKPWDFFSVHNDL | 2.18 |

Reference: the supplement of paper PMC10567573
